B1: NRC3_random_hg19_171_o1 (dsDNA)
DNA 1: GCGGGCTACTGCCTAGGGTGCCTTGGCACAGCCAGCGCGATTGACAGCGTAGAATGAAGG
DNA 2: CCTTCATTCTACGCTGTCAATCGCGCTGGCTGTGCCAAGGCACCCTAGGCAGTAGCCCGC
B2: NRC3_wobSeed89_DR3_A15G_o1 (dsDNA)
DNA 1: GCCTATGTAGGTTAGGGGGGTCATTCAGTTTGAAAGGCGATTGACAGCGTAGAATGAAGG
DNA 2: CCTTCATTCTACGCTGTCAATCGCCTTTCAAACTGAATGACCCCCCTAACCTACATAGGC
B3: NRC3_wobSeed89_DR3_A15C_o1 (dsDNA)
DNA 1: GCCTATGTAGGTTACGGGGGTCATTCAGTTTGAAAGGCGATTGACAGCGTAGAATGAAGG
DNA 2: CCTTCATTCTACGCTGTCAATCGCCTTTCAAACTGAATGACCCCCGTAACCTACATAGGC
B4: NRC3_wobSeed89_DR3_A9G_o1 (dsDNA)
DNA 1: GCCTATGTGGGTTAAGGGGGTCATTCAGTTTGAAAGGCGATTGACAGCGTAGAATGAAGG
DNA 2: CCTTCATTCTACGCTGTCAATCGCCTTTCAAACTGAATGACCCCCTTAACCCACATAGGC
B5: NRC3_wobSeed76_DR3_C13A_o1 (dsDNA)
DNA 1: GCCCTACTGGGCAAAAAAGGTCATTGATGCCGATAAGCGATTGACAGCGTAGAATGAAGG
DNA 2: CCTTCATTCTACGCTGTCAATCGCTTATCGGCATCAATGACCTTTTTTGCCCAGTAGGGC
B6: NRC3_wobSeed92_DR3_A9G_o1 (dsDNA)
DNA 1: GCAGAATGGGGTTATTAAGATCAGGGAATTGCGGTCGCGATTGACAGCGTAGAATGAAGG
DNA 2: CCTTCATTCTACGCTGTCAATCGCGACCGCAATTCCCTGATCTTAATAACCCCATTCTGC
B7: NRC3_wobSeed120_DR4_G7A_o1 (dsDNA)
DNA 1: GCCCGAATAGGTTACGAGGGGGCATTCAGTGCGAATGCGATTGACAGCGTAGAATGAAGG
DNA 2: CCTTCATTCTACGCTGTCAATCGCATTCGCACTGAATGCCCCCTCGTAACCTATTCGGGC
B8: NRC3_wobSeed124_DR5_C17A_o1 (dsDNA)
DNA 1: GCCCTACTGGGCCATTAAGAGGTCATTGATCATATGGCGATTGACAGCGTAGAATGAAGG
DNA 2: CCTTCATTCTACGCTGTCAATCGCCATATGATCAATGACCTCTTAATGGCCCAGTAGGGC
B9: NRC3_wobSeed124_DR5_T15C_o1 (dsDNA)
DNA 1: GCCCTACTGGGCCACTCAGAGGTCATTGATCATATGGCGATTGACAGCGTAGAATGAAGG
DNA 2: CCTTCATTCTACGCTGTCAATCGCCATATGATCAATGACCTCTGAGTGGCCCAGTAGGGC
B10: NRC3_wobSeed124_DR5_T27C_o1 (dsDNA)
DNA 1: GCCCTACTGGGCCATTCAGAGGTCATCGATCATATGGCGATTGACAGCGTAGAATGAAGG
DNA 2: CCTTCATTCTACGCTGTCAATCGCCATATGATCGATGACCTCTGAATGGCCCAGTAGGGC
B11: NRC3_wobSeed50_DR2_A17G_o1 (dsDNA)
DNA 1: GCCCTAGTTGGTCAGGGGGTCACACACCGGATATGAGCGATTGACAGCGTAGAATGAAGG
DNA 2: CCTTCATTCTACGCTGTCAATCGCTCATATCCGGTGTGTGACCCCCTGACCAACTAGGGC
B12: NRC3_wobSeed50_DR2_T9G_o1 (dsDNA)
DNA 1: GCCCTAGTGGGTCAGGAGGTCACACACCGGATATGAGCGATTGACAGCGTAGAATGAAGG
DNA 2: CCTTCATTCTACGCTGTCAATCGCTCATATCCGGTGTGTGACCTCCTGACCCACTAGGGC
B13: NRC3_wobSeed27_DR1_A9G_o1 (dsDNA)
DNA 1: GCACTCGGGGGACAAAGGTCAGAGCTACGCCAGTGAGCGATTGACAGCGTAGAATGAAGG
DNA 2: CCTTCATTCTACGCTGTCAATCGCTCACTGGCGTAGCTCTGACCTTTGTCCCCCGAGTGC
B14: NRC3_wobSeed25_DR1_A5C_o1 (dsDNA)
DNA 1: GCCACACTAGGTCAAAGGTCAAAGTCGAGCCAACCAGCGATTGACAGCGTAGAATGAAGG
DNA 2: CCTTCATTCTACGCTGTCAATCGCTGGTTGGCTCGACTTTGACCTTTGACCTAGTGTGGC
B15: NRC3_wobSeed113_DR4_T17G_o1 (dsDNA)
DNA 1: GCATATGTAGGTTAGCGGGGGTCATTCAGACTAGGCGCGATTGACAGCGTAGAATGAAGG
DNA 2: CCTTCATTCTACGCTGTCAATCGCGCCTAGTCTGAATGACCCCCGCTAACCTACATATGC
B16: NRC3_wobSeed26_DR1_C22A_o1 (dsDNA)
DNA 1: GCTCTAGTTGGTCAAAGGTCAAACACTCGAAATGCGGCGATTGACAGCGTAGAATGAAGG
DNA 2: CCTTCATTCTACGCTGTCAATCGCCGCATTTCGAGTGTTTGACCTTTGACCAACTAGAGC
B17: NRC3_wobSeed72_DR2_T13C_o1 (dsDNA)
DNA 1: GCTCGAGTAGGTCACGGGGGCATTCAGGGATGAAGAGCGATTGACAGCGTAGAATGAAGG
DNA 2: CCTTCATTCTACGCTGTCAATCGCTCTTCATCCCTGAATGCCCCCGTGACCTACTCGAGC
B18: NRC3_wobSeed72_DR2_A6T_o1 (dsDNA)
DNA 1: GCTCGTGTAGGTTACGGGGGCATTCAGGGATGAAGAGCGATTGACAGCGTAGAATGAAGG
DNA 2: CCTTCATTCTACGCTGTCAATCGCTCTTCATCCCTGAATGCCCCCGTAACCTACACGAGC
B19: NRC3_wobSeed98_DR4_C29A_o1 (dsDNA)
DNA 1: GCACTAGTTGGTCAGCTGAGGTCACACAAAATTCGGGCGATTGACAGCGTAGAATGAAGG
DNA 2: CCTTCATTCTACGCTGTCAATCGCCCGAATTTTGTGTGACCTCAGCTGACCAACTAGTGC
B20: NRC3_wobSeed17_DR0_A14G_o1 (dsDNA)
DNA 1: GCATATGTAGGTTGGGGTCATTCAGAAAGTAGGGAAGCGATTGACAGCGTAGAATGAAGG
DNA 2: CCTTCATTCTACGCTGTCAATCGCTTCCCTACTTTCTGAATGACCCCAACCTACATATGC
B21: NRC3_wobSeed69_DR2_A21T_o1 (dsDNA)
DNA 1: GCAGTCAAAGTTCACTAGGTTACGTAAGATTCAGCTGCGATTGACAGCGTAGAATGAAGG
DNA 2: CCTTCATTCTACGCTGTCAATCGCAGCTGAATCTTACGTAACCTAGTGAACTTTGACTGC
B22: NRC3_wobSeed49_DR2_C7A_o1 (dsDNA)
DNA 1: GCCAAAATAGGTCAAGAGGTCAAAGTCCGCTTCCCGGCGATTGACAGCGTAGAATGAAGG
DNA 2: CCTTCATTCTACGCTGTCAATCGCCGGGAAGCGGACTTTGACCTCTTGACCTATTTTGGC
B23: NRC3_wobSeed18_DR0_o1 (dsDNA)
DNA 1: GCGATACAGGGTCAAGGCCAGAGTACGCGTATTGATGCGATTGACAGCGTAGAATGAAGG
DNA 2: CCTTCATTCTACGCTGTCAATCGCATCAATACGCGTACTCTGGCCTTGACCCTGTATCGC
B24: NRC3_wobSeed74_DR3_A18G_o1 (dsDNA)
DNA 1: GCTCTAGTTGGTCACGGGGGTCACACACGACGGGTAGCGATTGACAGCGTAGAATGAAGG
DNA 2: CCTTCATTCTACGCTGTCAATCGCTACCCGTCGTGTGTGACCCCCGTGACCAACTAGAGC
B25: NRC3_wobSeed74_DR3_G7C_o1 (dsDNA)
DNA 1: GCTCTACTTGGTCACGGAGGTCACACACGACGGGTAGCGATTGACAGCGTAGAATGAAGG
DNA 2: CCTTCATTCTACGCTGTCAATCGCTACCCGTCGTGTGTGACCTCCGTGACCAAGTAGAGC
B26: NRC3_wobSeed2_DR0_C4A_o1 (dsDNA)
DNA 1: GCCATAGTTGGTCAAGGTCACACACGCTATAGGTACGCGATTGACAGCGTAGAATGAAGG
DNA 2: CCTTCATTCTACGCTGTCAATCGCGTACCTATAGCGTGTGTGACCTTGACCAACTATGGC
B27: NRC3_wobSeed2_DR0_A22G_o1 (dsDNA)
DNA 1: GCCCTAGTTGGTCAAGGTCACGCACGCTATAGGTACGCGATTGACAGCGTAGAATGAAGG
DNA 2: CCTTCATTCTACGCTGTCAATCGCGTACCTATAGCGTGCGTGACCTTGACCAACTAGGGC
B28: NRC3_wobSeed58_DR2_C5G_o1 (dsDNA)
DNA 1: GCATGGAAAGGTCGTGAGGTGAGTATACAGAAAGGCGCGATTGACAGCGTAGAATGAAGG
DNA 2: CCTTCATTCTACGCTGTCAATCGCGCCTTTCTGTATACTCACCTCACGACCTTTCCATGC

Chain of LXRb:RXRa (P55055 whole entry, chain 1 of 2): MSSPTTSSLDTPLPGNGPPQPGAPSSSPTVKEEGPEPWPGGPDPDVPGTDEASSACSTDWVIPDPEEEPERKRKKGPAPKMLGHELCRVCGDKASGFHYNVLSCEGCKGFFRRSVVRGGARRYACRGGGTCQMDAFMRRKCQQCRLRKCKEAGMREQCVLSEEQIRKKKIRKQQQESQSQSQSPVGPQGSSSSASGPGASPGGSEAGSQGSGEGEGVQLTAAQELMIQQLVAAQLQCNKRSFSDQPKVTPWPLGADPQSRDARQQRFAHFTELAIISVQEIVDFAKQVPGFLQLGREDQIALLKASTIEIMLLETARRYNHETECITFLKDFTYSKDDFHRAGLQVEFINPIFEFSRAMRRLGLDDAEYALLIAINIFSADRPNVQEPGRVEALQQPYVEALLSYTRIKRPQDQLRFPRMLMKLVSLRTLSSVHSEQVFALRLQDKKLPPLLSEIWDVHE
Chain of LXRb:RXRa (P19793 whole entry, chain 2 of 2): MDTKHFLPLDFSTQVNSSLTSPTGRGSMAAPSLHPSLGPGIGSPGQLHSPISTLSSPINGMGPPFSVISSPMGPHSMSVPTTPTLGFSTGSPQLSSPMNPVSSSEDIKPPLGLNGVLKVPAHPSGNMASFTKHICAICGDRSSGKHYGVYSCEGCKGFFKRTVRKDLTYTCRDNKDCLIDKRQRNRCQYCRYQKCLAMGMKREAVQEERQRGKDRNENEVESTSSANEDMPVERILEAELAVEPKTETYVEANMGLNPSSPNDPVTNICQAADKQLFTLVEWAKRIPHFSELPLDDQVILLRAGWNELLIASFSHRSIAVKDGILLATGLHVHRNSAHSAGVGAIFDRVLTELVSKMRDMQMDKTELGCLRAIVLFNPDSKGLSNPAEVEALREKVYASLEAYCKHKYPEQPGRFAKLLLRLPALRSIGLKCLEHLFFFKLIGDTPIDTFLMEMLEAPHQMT
Chain of RXRa (P19793 whole entry): as the sequence (P19793 whole entry, chain 2 of 2) above
Chain of VDR:RXRa (P11473 whole entry, chain 1 of 2): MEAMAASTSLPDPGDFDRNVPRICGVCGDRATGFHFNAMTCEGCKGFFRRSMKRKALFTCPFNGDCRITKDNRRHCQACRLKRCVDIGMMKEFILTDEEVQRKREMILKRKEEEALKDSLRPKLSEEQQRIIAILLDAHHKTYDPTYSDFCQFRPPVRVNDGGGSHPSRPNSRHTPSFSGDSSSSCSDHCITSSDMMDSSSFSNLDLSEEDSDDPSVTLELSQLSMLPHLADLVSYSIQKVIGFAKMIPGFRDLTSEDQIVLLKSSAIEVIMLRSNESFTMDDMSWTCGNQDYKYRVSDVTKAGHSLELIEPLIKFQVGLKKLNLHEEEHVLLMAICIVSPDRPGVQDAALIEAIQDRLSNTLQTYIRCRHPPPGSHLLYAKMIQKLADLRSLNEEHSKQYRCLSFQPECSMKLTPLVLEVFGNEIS
Chain of VDR:RXRa (P19793 whole entry, chain 2 of 2): as the sequence (P19793 whole entry, chain 2 of 2) above
Chain of RARb:RXRa (P10826 whole entry, chain 1 of 2): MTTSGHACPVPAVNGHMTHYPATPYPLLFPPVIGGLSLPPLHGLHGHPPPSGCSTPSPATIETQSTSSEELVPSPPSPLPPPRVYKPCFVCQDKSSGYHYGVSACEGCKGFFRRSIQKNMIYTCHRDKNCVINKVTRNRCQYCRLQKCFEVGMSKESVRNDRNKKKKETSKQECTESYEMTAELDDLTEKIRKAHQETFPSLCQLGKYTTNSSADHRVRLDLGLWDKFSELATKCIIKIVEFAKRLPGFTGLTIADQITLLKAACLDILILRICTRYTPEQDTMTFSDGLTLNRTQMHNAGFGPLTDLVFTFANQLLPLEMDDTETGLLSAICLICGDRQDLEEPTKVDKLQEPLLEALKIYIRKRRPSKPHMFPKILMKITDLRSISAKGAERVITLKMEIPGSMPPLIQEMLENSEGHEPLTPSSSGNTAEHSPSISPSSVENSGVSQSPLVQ
Chain of RARb:RXRa (P19793 whole entry, chain 2 of 2): as the sequence (P19793 whole entry, chain 2 of 2) above
Chain of FXR:RXRa (Q96RI1 whole entry, chain 1 of 2): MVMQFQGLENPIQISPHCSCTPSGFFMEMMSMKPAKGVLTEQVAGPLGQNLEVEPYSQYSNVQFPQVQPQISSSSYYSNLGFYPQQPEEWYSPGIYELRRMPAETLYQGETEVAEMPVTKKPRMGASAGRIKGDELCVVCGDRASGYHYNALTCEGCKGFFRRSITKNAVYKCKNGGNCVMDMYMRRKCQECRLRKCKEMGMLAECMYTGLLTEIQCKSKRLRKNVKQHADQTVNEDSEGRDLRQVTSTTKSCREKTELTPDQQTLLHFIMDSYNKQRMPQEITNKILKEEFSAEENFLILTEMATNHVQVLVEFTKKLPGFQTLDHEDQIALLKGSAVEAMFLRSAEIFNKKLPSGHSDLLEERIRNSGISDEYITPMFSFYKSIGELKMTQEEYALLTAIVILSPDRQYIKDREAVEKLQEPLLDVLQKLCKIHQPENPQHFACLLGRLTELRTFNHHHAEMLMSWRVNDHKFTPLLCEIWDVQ
Chain of FXR:RXRa (P19793 whole entry, chain 2 of 2): as the sequence (P19793 whole entry, chain 2 of 2) above

One data set addresses FXR:RXRa (Homo sapiens, UniProt Q96RI1;P19793 full;full). Briefly: no ligand; PBM; 270 nM : 90 nM RXRa; PBS pH 7.4, 2% milk, 0.02% Triton X-100, 1 mM DTT, BSA, 0.4 mg/ml salmon testes DNA. The note with it: tags: His kept;His cleaved; copies: 1;1; label: surface-attached array probe. In a few lines: (§1)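 Custom Agilent 4×180K protein-binding microarrays carried double-stranded probes. Their 34-nt variable regions held direct-repeat seeds, single-nucleotide variants, half-site ablations and random human genomic background sequences. Arrays were incubated 1 h with ligand-free nuclear receptor dimers in PBS pH 7.4, 2% milk, 0.02% Triton X-100, 1 mM DTT, 0.2 mg/mL BSA and 0.4 mg/ml salmon testes DNA. Antibodies against each partner (one per run) detected binding, and scanned fluorescence was regression-normalized. Binding z-scores use random background probes as reference.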
Regarding B1, the binding signal was -2.74 PBM z-score against 500 random probes.

The next data set deals with VDR:RXRa (Homo sapiens, UniProt P11473;P19793 full;full). Described as above. The note with it: tags: His kept;His cleaved; copies: 1;1; label: surface-attached array probe. In a few lines:
as §1
On to B1, for which the binding signal is -0.96 PBM z-score against 500 random probes.

The next data set has as its target RARb:RXRa (Homo sapiens, UniProt P10826;P19793 full;full). Described as above. The note with it: tags: His kept;His cleaved; copies: 1;1; label: surface-attached array probe. A digest of the protocol: as §1
For B1, the binding signal was -0.98 PBM z-score against 500 random probes.

For a further data set, the target named is LXRb:RXRa (Homo sapiens, UniProt P55055;P19793 full;full). The data set is described as above. The note with it: tags: His kept;His cleaved; copies: 1;1; label: surface-attached array probe. In a few lines:
as §1
Take B2: the binding signal was 7.36 PBM z-score against 500 random probes.

Take B3: the binding signal was 6.78 PBM z-score against 500 random probes.

As to B4, the binding signal is 6.72 PBM z-score against 500 random probes.

For the molecule B5, the binding signal is 3.73 PBM z-score against 500 random probes.

Regarding B6, the binding signal was 3.86 PBM z-score against 500 random probes.

As for B7, the binding signal was 7.24 PBM z-score against 500 random probes.

As to B8, the binding signal is 3.9 PBM z-score against 500 random probes.

For the molecule B9, the binding signal was 3.89 PBM z-score against 500 random probes.

In the case of B10, the binding signal is 3.78 PBM z-score against 500 random probes.

Regarding B11, the binding signal was 6.04 PBM z-score against 500 random probes.

Regarding B12, the binding signal is 3.76 PBM z-score against 500 random probes.

Turning to B13, the binding signal was 5.84 PBM z-score against 500 random probes.

Turning to B14, the binding signal was 7.56 PBM z-score against 500 random probes.

For B15, the binding signal was 6.23 PBM z-score against 500 random probes.

On to B16, for which the binding signal is 6.26 PBM z-score against 500 random probes.

For B17, the binding signal is 6.37 PBM z-score against 500 random probes.

In the case of B18, the binding signal was 6.12 PBM z-score against 500 random probes.

Take B19: the binding signal was 3.75 PBM z-score against 500 random probes.

As for B20, the binding signal is 6.29 PBM z-score against 500 random probes.

As to B21, the binding signal is 3.64 PBM z-score against 500 random probes.

On to B22, for which the binding signal is 6.19 PBM z-score against 500 random probes.

Turning to B23, the binding signal was 3.7 PBM z-score against 500 random probes.

With B24, the binding signal was 6.39 PBM z-score against 500 random probes.

Take B25: the binding signal is 3.61 PBM z-score against 500 random probes.

Regarding B26, the binding signal was 3.81 PBM z-score against 500 random probes.

As for B27, the binding signal was 3.68 PBM z-score against 500 random probes.

Turning to B28, the binding signal was 3.62 PBM z-score against 500 random probes.

The next data set has as its target RXRa (Homo sapiens, UniProt P19793). As to the kind of experiment: no ligand; PBM; 180 nM; PBS pH 7.4, 2% milk, 0.02% Triton X-100, 1 mM DTT, BSA, 0.4 mg/ml salmon testes DNA. The note with it: tags: His cleaved; chain copies: 2; label: surface-attached array probe.
Turning to B1, the binding signal is -0.92 PBM z-score against 500 random probes.

Values taken from PMC6555819, “Comprehensive study of nuclear receptor DNA binding provides a revised framework for understanding receptor specificity”.
